Measured values as given in article PMC4934754, “HCF1 and OCT2 Cooperate with EBNA1 To Enhance OriP-Dependent Transcription and Episome Maintenance of Latent Epstein-Barr Virus”.

What was measured:
EBNA1 DBD;OCT2 DBD [1] = biological target: T1, EBNA1 DBD;OCT2 DBD (Epstein-Barr virus;human?, UniProt P03211;P09086-3 459-607;175-345, |); assay: HTRF; 15 nM His-EBNA1, 2.5-40 nM unlabeled OCT2; OCT2 stimulates EBNA1 binding; Buffer not given (EMSA as in cited ref. 32; HTRF and ALPHA in similar conditions; 1 h incubation for HTRF); settings: protein: recombinant;recombinant; tags: His;none (His-SUMO removed by SUMO protease); copies: 1;1; label: 5' biotin, streptavidin Eu3+ cryptate
His-OCT2 DBD (HTRF) = biological target: T2, His-OCT2 DBD (HTRF) (UniProt P09086-3 175-345); assay: HTRF; 0-80 nM OCT2; Buffer not given (EMSA as in cited ref. 32; HTRF and ALPHA in similar conditions; 1 h incubation for HTRF); settings: protein: recombinant; label: 5' biotin, streptavidin Eu3+ cryptate
T2 sequence: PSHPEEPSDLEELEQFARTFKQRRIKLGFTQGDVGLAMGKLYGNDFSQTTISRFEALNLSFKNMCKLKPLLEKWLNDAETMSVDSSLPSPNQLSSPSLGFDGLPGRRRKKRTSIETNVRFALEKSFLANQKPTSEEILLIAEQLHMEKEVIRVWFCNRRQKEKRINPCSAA

EBNA1 DBD;OCT2 DBD [2] = biological target: T1, EBNA1 DBD;OCT2 DBD; assay: EMSA; EBNA1 titration with 40 nM OCT2 or OCT2 titration with 15 nM EBNA1; saturated complex distinct from EBNA1 alone; Buffer not given (EMSA as in cited ref. 32; HTRF and ALPHA in similar conditions; 1 h incubation for HTRF); settings: protein: recombinant;recombinant; tags: His;none (His-SUMO removed by SUMO protease); copies: 1;1; label: 32P
OCT2 DBD = biological target: T3, OCT2 DBD (UniProt P09086-3 175-345); assay: EMSA; single major species at 40 nM OCT2, larger complex at higher concentration; Buffer not given (EMSA as in cited ref. 32; HTRF and ALPHA in similar conditions; 1 h incubation for HTRF); settings: protein: recombinant; tags: none (His-SUMO removed by SUMO protease); label: 32P
T3 sequence: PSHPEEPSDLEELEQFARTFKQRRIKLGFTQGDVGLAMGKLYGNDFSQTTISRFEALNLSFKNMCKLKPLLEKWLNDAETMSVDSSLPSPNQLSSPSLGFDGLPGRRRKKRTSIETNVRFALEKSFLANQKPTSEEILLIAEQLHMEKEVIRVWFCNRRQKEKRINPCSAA

EBNA1 DBD = EBNA1 DBD (Epstein-Barr virus, UniProt P03211 459-607); assay: EMSA; no OCT2; low nanomolar affinity, two major species; Buffer not given (EMSA as in cited ref. 32; HTRF and ALPHA in similar conditions; 1 h incubation for HTRF); settings: protein: recombinant; tags: His; label: 32P
Chain of EBNA1 DBD (P03211 459-607): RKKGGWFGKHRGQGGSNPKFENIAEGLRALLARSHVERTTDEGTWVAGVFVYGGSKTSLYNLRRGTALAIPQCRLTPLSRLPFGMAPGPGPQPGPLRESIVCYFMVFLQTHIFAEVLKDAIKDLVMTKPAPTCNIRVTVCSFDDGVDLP

T1 sequence (P03211 459-607, one chain of several): as the sequence (P03211 459-607) above

B1: 2xFR (60 bp), biotin (dsDNA)
DNA 1: ATTAGGATAGCCTATGCTACCCAGATATAGATTAGGATAGCATATGCTACCCAGATATAG
DNA 2: CTATATCTGGGTAGCATATGCTATCCTAATCTATATCTGGGTAGCATAGGCTATCCTAAT
B1: binds (EBNA1 DBD;OCT2 DBD [1]); binds (His-OCT2 DBD (HTRF)).

B2: 2xFR (60-mer), 32P (dsDNA)
DNA 1: ATTAGGATAGCCTATGCTACCCAGATATAGATTAGGATAGCATATGCTACCCAGATATAG
DNA 2: CTATATCTGGGTAGCATATGCTATCCTAATCTATATCTGGGTAGCATAGGCTATCCTAAT
B2: binds (EBNA1 DBD;OCT2 DBD [2]); binds (OCT2 DBD); binds (EBNA1 DBD).
